{
  "source": "paper PMC11488100",
  "about": "“PET imaging of CXCR4 expression using [^18F]AlF-NOTA-QHY-04 for hematologic malignancy and solid tumors” (Theranostics, 2024)",
  "assay_type": "in vitro ADME, human",
  "experimental": "The in vitro and in vivo stability of [^18F]AlF-NOTA-QHY-04 were evaluated by radio-HPLC to examine the RCP after different incubation periods. The binding affinity of the unlabeled precursor to CXCR4 was measured using the biolayer interferometry Octet Red96 system (PALL ForteBio, USA). The details are supplied in the supplemental materials.\nSynthesis of [18F]AlF-NOTA-QHY-04\nBriefly, NOTA-QHY-04 was radiolabeled with [18F]F-, following procedures. 10-20 […]\nGBq [18F]F− produced by medical cyclotron (MINITRACE Cyclotron, GE, USA) was […]\ncaptured with a QMA SepPak light cartridge (Waters Corporation, USA) and then eluted […]\nwith 300-500 μL saline (0.9% NaCl). Then, the saline containing [18F]F− was added to […]\nThe partition coefficient (logD) of [18F]AlF-NOTA-QHY-04 was determined in a […]\nfrom each phase were measured for radioactivity using a γ-counter. […]\nrepeated three times to ensure the accuracy of the results. The logD was calculated by […]\ndividing the average radioactivity in the 1 -octanol layer by that in the PBS layer, and the […]\nhuman serum albumin solution were evaluated by radio-HPLC to examine the radiochemical purity after different incubation periods. For the saline study, 200 μL of [18F]AlF-NOTA-QHY-04 (0.74–3.70 MBq) was incubated at 37°C with 800 μL of saline for 1 h, 3 h and 6 h respectively, and then directly evaluated by radio -HPLC. […]",
  "note": "Bridge positions count the residues as written; N and C are the ends. Square brackets hold non-standard residues; d marks the D form. Peptide text beside a SMILES is read from it. * marks the point of attachment. NOTA = O=C(O)CN1CCN(CC(=O)O)CCN(CC(=O)*)CC1; 2Nal = N[C@@H](Cc1ccc2ccccc2c1)C(=O)O; Pen = CC(C)(S)[C@H](N)C(=O)O; 4Amb = NCc1ccc(C(=O)O)cc1; Ahx = NCCCCCC(=O)O",
  "data": [
    {"smiles": "C[C@H](NC(=O)[C@H](CCCNC(=N)N)NC(=O)CCCCCNC(=O)c1ccc(CNC(=O)CN2CCN(CC(=O)O)CCN(CC(=O)O)CC2)cc1)C(=O)N[C@@H]1CSSC(C)(C)[C@@H](C(=O)O)NC(=O)[C@H](Cc2c[nH]cn2)NC(=O)[C@H](Cc2ccc3ccccc3c2)NC(=O)[C@H](CCCNC(=N)N)NC1=O", "note": "[[^18F]AlF-NOTA-QHY-04] ({NOTA-4Amb-Ahx}-RA[dC]R[2Nal]H[Pen]-OH; disulfide 3-7)", "values": [
      {"measurement": "radiochemical purity after incubation in 5% human serum albumin solution", "value": "above 95%"}
    ]}
  ]
}
